The source of these data is patent US20240327526A1.

For assay [1], the target named is ActRIIB-huFc (human). Put plainly: KinExA. (In general: In KinExA the mixture passes briefly over coated beads that capture the unbound partner.)
In assay [2] the target is ActRIIB-huFc (human). Put plainly: BIAcore. On the technique in general: In SPR one partner is held on a chip, and binding of the other changes the refractive index at the surface.
Assay [3] has as its target ActRIIB-huFc (human). Kind of assay: binding affinity, method not stated.

Where a chain is given by its changes, count along the chain named. Bounds are passed on as bounds.

Sequence of ActRIIB-huFc (human) (chain, as listed by the source limits assumed, form in doubt): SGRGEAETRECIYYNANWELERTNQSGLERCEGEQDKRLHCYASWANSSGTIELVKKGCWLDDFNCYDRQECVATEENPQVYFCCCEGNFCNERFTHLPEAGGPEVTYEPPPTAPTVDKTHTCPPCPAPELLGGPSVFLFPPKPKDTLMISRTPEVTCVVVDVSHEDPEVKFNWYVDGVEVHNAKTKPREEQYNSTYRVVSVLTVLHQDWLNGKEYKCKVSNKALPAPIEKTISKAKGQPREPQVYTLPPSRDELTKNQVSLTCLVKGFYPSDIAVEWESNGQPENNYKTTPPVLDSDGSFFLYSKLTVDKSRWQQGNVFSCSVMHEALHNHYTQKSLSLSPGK

B1: M43 (antibody, human IgG2, lambda, V domains shown)
VH: EVQLLESGGGLVQPGGSLRLSCAASGFTFRNSAMSWVRQAPGKGLEWVSGISVTGGSTFYTDSVKGRFTVSRDNSRNTLYLQMNSLRAEDTAVYYCAKVYYYSFFDYWGQGTLVTVSS
VL: QTVVTQEPSFSVSPGGTVTLTCGFNSGSVSTSYWPSWYQQTPGQAPRTLIYNTNTRSSGVPDRFSGSILGNKAALTITGAQADDESDYYCVLWMGSGIWVFGGGTKLTVLG
For B1, in the assay with ActRIIB-huFc (human) [1], the Kd is less than 1 pM and the fold improvement of affinity over the parental molecule R31-1 was determined as 10 fold. The Kd in the assay with ActRIIB-huFc (human) [2] stood at 1 pM.

B2: Anti-ActRIIB human IgG R31-1 (antibody, V domains shown)
VH: B1 VH with S32Y, F59Y, Y102S
VL: B1 VL with W34Y, W93Y
Consider B2, for which the equilibrium dissociation constant (Kd) was less than 10 pM in the assay with ActRIIB-huFc (human) [3] and 10 pM in the assay with ActRIIB-huFc (human) [2].

Broadly, the Kd is a measure of binding affinity in units of concentration. Low values mean higher affinity, high ones lower affinity.
